# Earlier results as cited in patent US10131637B2, “Anti-PCSK9 compounds and methods for the treatment and/or prevention of cardiovascular diseases” (Shifa Biomedical Corporation, priority 2013, dated 2018).
# Molecular target: T1, PCSK9 (Homo sapiens, UniProt Q8NBP7)
# T1 construct: slashed LDL levels by more than 60% in clinical trial; host or cells: patients in a clinical trial (endogenous circulating PCSK9)
# Details: single injection, clinical trial
substance,measurement,value
REGN727: Regeneron/Sanofi monoclonal antibody blocking PCSK9,reduction of LDL levels,more than 60%
